Substrate in data set [1]: CC1(C)S[C@@H]2[C@H](NC(=O)Cc3ccccc3)C(=O)N2[C@H]1C(=O)O
In words: (§1) Activity of Klebsiella pneumoniae Beta-Lactamase SHV-1.

Substrate in data set [2]: CC1(C)S[C@@H]2[C@H](NC(=O)[C@H](C(=O)O)c3ccsc3)C(=O)N2[C@H]1C(=O)O
The description is as §1.

Substrate in data set [3]: CO/N=C(\C(=O)N[C@@H]1C(=O)N2C(C(=O)O)=C(COC(N)=O)CS[C@H]12)c1ccco1
Described as §1.

Substrate in data set [4]: CO/N=C(\C(=O)N[C@@H]1C(=O)N2C(C(=O)[O-])=C(C[N+]3(C)CCCC3)CS[C@H]12)c1csc(N)n1
Described as §1.

Substrate in data set [5]: C[C@H]1[C@H](NC(=O)/C(=N\OC(C)(C)C(=O)O)c2csc(N)n2)C(=O)N1S(=O)(=O)O
The data set is described as §1.

Substrate in data set [6]: CC1(C)S[C@@H]2[C@H](NC(=O)Cc3ccccc3)C(=O)N2[C@H]1C(=O)O
In words: (§2) Ratio of Kcat to Km for Klebsiella pneumoniae Beta-Lactamase SHV-55.

Substrate in data set [7]: CC1(C)S[C@@H]2[C@H](NC(=O)[C@H](C(=O)O)c3ccsc3)C(=O)N2[C@H]1C(=O)O
The description is as §2.

Substrate in data set [8]: CCN1CCN(C(=O)N[C@@H](C(=O)N[C@@H]2C(=O)N3[C@@H]2SC(C)(C)[C@@H]3C(=O)O)c2ccccc2)C(=O)C1=O
Described as §2.

Substrate in data set [9]: CO/N=C(\C(=O)N[C@@H]1C(=O)N2C(C(=O)O)=C(COC(N)=O)CS[C@H]12)c1ccco1
The data set is described as §2.

Substrate in data set [10]: CO/N=C(\C(=O)N[C@@H]1C(=O)N2C(C(=O)[O-])=C(C[N+]3(C)CCCC3)CS[C@H]12)c1csc(N)n1
Described as §2.

Substrate in data set [11]: CC1(C)S[C@@H]2[C@H](NC(=O)Cc3ccccc3)C(=O)N2[C@H]1C(=O)O
Kind of data set: (§3) Activity of Klebsiella pneumoniae Beta-Lactamase SHV-55.

Substrate in data set [12]: CC1(C)S[C@@H]2[C@H](NC(=O)[C@H](C(=O)O)c3ccsc3)C(=O)N2[C@H]1C(=O)O
The data set is described as §3.

Substrate in data set [13]: CCN1CCN(C(=O)N[C@@H](C(=O)N[C@@H]2C(=O)N3[C@@H]2SC(C)(C)[C@@H]3C(=O)O)c2ccccc2)C(=O)C1=O
The description is as §3.

Substrate in data set [14]: CO/N=C(\C(=O)N[C@@H]1C(=O)N2C(C(=O)O)=C(COC(N)=O)CS[C@H]12)c1ccco1
The description is as §3.

Substrate in data set [15]: CO/N=C(\C(=O)N[C@@H]1C(=O)N2C(C(=O)[O-])=C(C[N+]3(C)CCCC3)CS[C@H]12)c1csc(N)n1
Described as §3.

Substrate in data set [16]: C[C@H]1[C@H](NC(=O)/C(=N\OC(C)(C)C(=O)O)c2csc(N)n2)C(=O)N1S(=O)(=O)O
Described as §3.

Numbering of substitutions follows the chain as printed.

B1: Beta-lactamase SHV-1 (Klebsiella pneumoniae), P0AD64 (protein)
chain: MRYIRLCIISLLATLPLAVHASPQPLEQIKLSESQLSGRVGMIEMDLASGRTLTAWRADERFPMMSTFKVVLCGAVLARVDAGDEQLERKIHYRQQDLVDYSPVSEKHLADGMTVGELCAAAITMSDNSAANLLLATVGGPAGLTAFLRQIGDNVTRLDRWETELNEALPGDARDTTTPASMAATLRKLLTSQRLSARSQRQLLQWMVDDRVAGPLIRSVLPAGWFIADKTGAGERGARGIVALLGPNNKAERIVVIYLRDTPASMAERNQQIAGIGAALIEHWQR
In general, Km refers to the substrate concentration at which the rate is half of its maximum. As usually defined, the kcat is the maximal rate divided by the concentration of active sites. Turning to B1, the Km in data set [1] was 23 µM; in [3], 80 µM; in data set [4] it was 149 µM. The kcat in data set [2] was 220 s⁻¹; in [3], less than 0.1 s⁻¹; in [4], less than 0.1 s⁻¹; in data set [5] it was less than 0.1 s⁻¹.

B2: Beta-lactamase SHV-55 (Klebsiella pneumoniae), Q4TVR4 (protein)
chain: B1 chain with Y3F, G234S, E235K
Broadly, the kcat/Km is the turnover number divided by the Michaelis constant. B2: the kcat/Km was 5.3e+06 M⁻¹ s⁻¹ in [6]; 1.5e+06 M⁻¹ s⁻¹ in [7]; 3.7e+06 M⁻¹ s⁻¹ in data set [8]; 300000 M⁻¹ s⁻¹ in [9]; 200000 M⁻¹ s⁻¹ in data set [10]. For the same protein, the Km in data set [11] came out at 5 µM; in data set [12] it was 6 µM; in [13] it was 8 µM; in data set [15], 149 µM; in data set [16] it was 5 µM. Besides, the kcat in [12] is 8 s⁻¹; in data set [13] it was 27 s⁻¹; in [14], 7 s⁻¹; in data set [15], 30 s⁻¹; in data set [16], less than 0.1 s⁻¹.

Values taken from ChEMBL document CHEMBL1255339, “Biochemical characterization of SHV-55, an extended-spectrum class A beta-lactamase from Klebsiella pneumoniae” (Antimicrob Agents Chemother, 2008).
